# Measurements published in the DeepSol protein solubility set.
# Assay: soluble on expression in E. coli; label from the status in PepcDB or PDB records
row,Sequence,soluble on expression in E. coli
1,MLKQSGKLRADATPAEVEQAVRDYLRQKAIHMPRGKGELYDKEAKRAEAMQDGQQTNGVLNGKGKKLGQSKTASVPSVKPEPWNGGKRVDRVLVLLIEYPDFPHNNIQPTETDMYYKDYTREHYEDMIFGGDDGYYDGPNGEKLISVKKYYEEQSGGSYSIEGKVAGWYQAKYPAKYYGGNVPAPDGNDANPRALVREALAAAAKDPSINLREFDQEDRYDLDGDGNYREPDGLIDHLMIIHSSVGEEAGGGSLGGAAIWSHRWNLGSVYRIPNTTTDVPYWRGQLAAYDYTIEPADGAAGVFAHEYGHDLGLPDEYDTIYSGLGEPIAYWSIMSSGSWAGRIPGTEPTGFSAWAKQFLQSTMPGSNWLSGTTVEWNEVTQNGVEVVLDEASTKGTNNDAVRINLLKKETVVTIPPSGAYAYFSGSGNNLDHTMSTTIDLTGASKATLAFDTWYAIEKDWDYGAVEVKPHGSNEWTTIQGNITTTNNPYGQNPGNGITGTSNGWVKAEFDLSAYAGQTIDLRFHYITDVAVSEAGWYFDNIQVTADGAAVLADGAEGDSSFVMTGFEKSNGKRYSDHYYLLEWRNHRGVDEGLAHILRGGRLLSYDPGLVVWYVDEGYDNNWTGVHPGEGFLGVVDADQHTLKWSGNTTASTRYQVHDAAFSLQKGASFRVAINGSQLIDNDTSPTPVFDDSRSYDNKGAVDAGRNVPNYGLKIRVIGESADRTAARVLIYR,not soluble
2,VVIRVLFRPVSLIPVNNSSTPQSQGPISRRLALTALGFGVLAPNVLVACAGKVTKLAEKRPPPAPRLTFRPADSAADVVPIAPISVEVGDGWFQRVALTNSAGKVVAGAYSRDRTIYTITEPLGYDTTYTWSGSAVGHDGKAVPVAGKFTTVAPVKTINAGFQLADGQTVGIAAPVIIQFDSPISDKAAVERALTVTTDPPVEGGWAWLPDEAQGARVHWRPREYYPAGTTVDVDAKLYGLPFGDGAYGAQDMSLHFQIGRRQVVKAEVSSHRIQVVTDAGVIMDFPCSYGEADLARNVTRNGIHVVTEKYSDFYMSNPAAGYSHIHERWAVRISNNGEFIHANPMSAGAQGNSNVTNGCINLSTENAEQYYRSAVYGDPVEVTGSSIQLSYADGDIWDWAVDWDTWVSMSALPPPAAKPAATQIPVTAPVTPSDAPTPSGTPTTTNGPGG,not soluble
3,MGHHHHHHSHMEAPPVTMMPVTGGTINMMEYLLQGSVLDHSLESLIHRLRGLCDNMEPETFLDHEMVFLLKGQQASPFVLRARRSMDRAGAPWHLRYLGQPEMGDKNRHALVRNCVDIATSENLTDFLMEMGFRMDHEFVAKGHLFRKGIMKIMVYKIFRILVPGNTDSTEALSLSYLVELSVVAPAGQDMVSDDMKNFAEQLKPLVHLEKIDPKRLM,soluble
4,MLKGGEDVVQGTHVRELTPEWVARAVGGRLHPGGGPVRDLVWHSGAATPGSLFAVLPGRTTHGRHFIPEALARGASLVLADQAGPATLEVEDPWQALLRLGEALRRLFPGPVLAVGGSSGKTTTKEALAQGLGLPAPPGNLNTAPPLVRFFWHLDPQSPGAVVELGVDRQGEMAELFALAKPHLAVLTALGEEHLEAFGTLEKAVQEEAHLLRAPTALVGEQAAPLVLGLREDLLVYGFAEGTFRGRDLELGLRESRFRYGGLHVRVPYPGLGPAYGALAALAAAEVLGLSLEEVAERLARLTLPPGRMETREVGGVVFVNDAYNANPLSVKAGLRWLAAQPGRKWAVLGEMRELGRESLRLHLEVAEEAARLGLSPLYLGPHARHQAAFSGEAVESLEEALAWLKARVAPGDLVYLKASRAVGLERIVELWDAPFSS,soluble
5,MGKRKSKRKAPTKAKAVMPLDTQFNCPFCNHERVCEVKMDREKNVGYISCRVCSEDFQTNINYLSEPIDVYSDWVDACEQANNA,not soluble
6,MSLRPSAPELDHAKRQRLARLPKPVPLGVCTLREQRWVVLDLETSGLNPNRDQVLSIGAVAIEDGAIDFAQQFERTLHRPLQKTNASVLIHGLGPSALAAGCDPAEALLDLLDFIGNSPVLAFHAPFDQRMLARALKETLGHRLQSMFLDVAELAPMLNPDTVLREAGLDDWVARFGLQVEERHHASADAQVTAELALILFSQARRQQLDSPLQLEQRLRGWRRRKMQSHGEGHHHHHH,soluble
7,MAGDPMFKKRLNKDKINDCYTWEEELPDGSYDMGFHGNLNHMEKGKSGYVTHKQLDKKLEVFKQDLLVELSEKFVTKEEFRAQGKQIKELQIEQKAQGKTLQLILEALQGINKRLDKLESKLEHHHHHH,soluble
8,MGSDKIHHHHHHGNSSTGLSSGGSNVSLEVLKHRPLVEKYAKESDILEYVPILLAIIQVESGGTMEDVMQSSESAGFPPNSLSTEASIKQGCIYFASLVNRAKDIGCDQESIIQSYNYGGGYLDYVGKNGKKYSFALAESFSKEKSDGEKVTYSNPIAIKENGGWRYNYGNMFYVMLVKQYLTTTKFDDKTVQGIFDEAFKYEGTAYVFGGSSPATGFDCSGLTQWCYAKVGLQLPRVAQDQYDAMSHIELKDAKPGDLIFFHSTYDAGTYVTHVGIYAGDNRMFHAGDPVGWTNLTETYWQQHIIGAGRYKNRKGDR,not soluble
9,MTQTQPVGTLRLTIDDQGPQGQSRAVEQFHQGALRVIRPHYLDDSGQVCYTIIAIGGGYLGGDVYEQQFTIKDNAKALITTQSATKIYRTPQGPATQHTEINVGENAVLEYLADQTIAYREATYHQFTKVALHPSATFVMSEQITPGWHPDGKHFAYDEMRLHTEITDSTTGRLVLLDNLLLRPDSREGSFGWTEQYTHSGQMIVMGEGVDKQLVAELNEQLAAHPDVYGAVNFLSAPGTLLRGFIARTLSNRTEELINLHEHIASLLRGRWRGQEPVNLRKYLEHHHHHH,not soluble
10,MGATEVGDENAGTVSAQPCSRQCCLEDFWALLRRHPAPEPPPWTPVLYPLRTSLPSTLAVFLNLGLSFPKTSITSSWRDWTLHLPFAWSLSVRGPSQCVHVRGGGDHIRRRGG,not soluble
11,MSLNRVFIVDDDTLTCNLLKTIVEPIFGNVEAFQHPRAFLTLSLNKQDIIILDLMMPDMDGIEVIRHLAEHKSPASLILISGYDSGVLHSAETLALSCGLNVINTFTKPINTEVLTCFLTSLSNRQAQRELVSFNNDKANQGKFDFIPTEQDLREAIDKKQLILYYQPQINMKTECLHGAEVLVRWLHPEFGLIYPDKFIALAEQTGLIEQLSEEVIHLAIKQSVHWQKLNRATRLSINISAQNITSLKLPEQLRMLVKKYEIDPSMIVLELTESALMDSEVTSLDIFTRFRLKGFQLSIDDFGTGYSSLSQLHKIPFTELKIDQSFVTNMKQEKESMAIVETCIMLAHKLNMEAVAEGIEDKETWDLLSAEGCDIAQGYYIARPMPADQFDKWQFNEGHHHHHH,soluble
12,GPGSMNIQGMALHGHMKPVTMIKFNREGDLLFSTAKEPNVSVWYTKTGERLGTYDGHSAISACDVNNYSTLLVTGGMDFKAKLWCVETGEELANIMLRTPARAVGFSHDDNLLMVSTSRKMGQKSAVQLYNLPFLPPKDGYSIHPVNTVFNPCTEFVSENDDVTFAIWGPTNDTIYYSTSDGSVAILDVETMSTVCTHKPHEETINRISFDSNYYTLITASKDKTARLLDSRDLSVVQTYTSDVPVNDASISPRGDHVIIGGGMDAQDVTTQGGQTTFEVKFYHKVHEKQLGQVRCHFGTINSVCFFPDGRGFASGAFDGLVKLHRFDDKYSSTPGAIPLWTPEGI,not soluble
13,MAMQAAKRANIRLPPEVNRILMIRNLPYKITAEEMYDIFGKYGPIRQIRVGNTPETRGTAYVVYEDIFDAKNACDHLSGFNVCNRYLVVLYYNANRAFQKMDTKKKEEQLKLLKEKYGINTDPPK,soluble
14,TPLSRSERIELQSLLSARQYDAGAPDGIIGANTRKAIRSAQQSFGWPADGYPTHELLEALRKPVGQ,not soluble
15,MNSLSTEQLGIGYGDRVIVEDLNISIPKGKITTLIGPNGCGKSTILKTMSRIMRSHAGAVYLNGKAIHKMSTKDIAKDMAILPQTPEAPSGLTVHELVSYGRFPHQSGFGRLNDEDRRIIKWALEETGMAEYAERPIEALSGGQRQRVWIAMALAQGTELLLLDEPTTYLDLAHQLEILQLLDRLNKEQGRTILMVIHDLNHAARFSHYMIALKKGTVIKEGTALEVMTPDILKQVFQIDAEIVTDPRTNKPVCLTYDLIKNEKELVTV,not soluble
16,MSKVALFSHVSPDGDCIGSMLGIGLALEALGKEVAMFNPDPIPRNLSFLPGVDKITQSMPDPLPETLLFVDCADLQRVQLQREDLPADAVILNLDHHISNQNFGRINWVDSQAAASGELAYALVRRLNVELTQEIAANFYTALLTDTGSFKYANTTAKTHQIAGELMELEHHHHHH,not soluble
17,MGSDKIHHHHHHMAMTTEFANEITDVAKAIYEYAELGSSEYKSSSYLVEAFKRHGFQVDFPYLGMKTAFKARYFNGKPMVGLLAEYDALPNGHSCGHDLIAAWAFGTAIRLKDEFGISVTVFGTPSEEGIGEYAGSKAKFAQSGAFSDVDYVIGMHPDDRWAVGSTSLADLTIEAQFIGKSSHLLSPDYGINALDPLVESYVALSNFRRSVPNSKYPVIGMIVKEGGRASNVIPDKASMEIDIRAKKKADLAGFVDQIERILKMEGEMHYCKLNINEVTPIYDEYKSNRVIDSLLEEECQKHAVNPFNVDRSGEEPMGSTDEANVSQVIPTGHLDVKIVDPGIPAHTDEFRIAADPSRSGKTLLKAIDITVETIKTIWQDKKFMNKIKEEFKK,not soluble
18,MGSDKIHHHHHHMATEAQVLEALQATMSAAYTRGLSAAKPQWNMIATEVPSAGAANFYGWLKDLPGIVEWTGARQLANLGKHGYSIENKTFESSISISRDNVDDDQIGQYSVIAQNYGDQVAYFPDTLAYPLLKAGFTTLCYDGQNFFDTDHPLATTPATTFSNVIGDPATDTGEPWFLIDDTKVLKPIVFQNRRPFVFKNMNPNEEYTWFNNKYAAGVDGRCNVGFSFPQLAIGSKAALTEANYAAAKKLLLKMKKVDGTPIGTRATKLVVGPDNEAAAKKLISRMLIEGGDTNIYYNDVEIVVSPLVTA,not soluble
19,MREIVTIQVGEFANFVGSHFWNFQDELLGLASDPESDPIFRNHNLDMDVLYRSGETQQGVATYTPRLVSVNLKGALGTMSSRGTLYNEGSSSRSDSSATWFGDVDTQRSEPRKRNLFLQSLYEEEHVVGKEKAKEIEDKDIVGCLDEEVECWTDFSKSHYHPQSLYELNGLWMDSQAFNNYGIGKDVFSEASRGEEICDRLRFFVEECDHIQGIKFLVDDSGGFSAVAADFLENMADEYTNVPVLLYSVRTPMSQMSSKKTVSNKLHDAISFSRLSSFCKLFTPIGLPSLTGSKASKFLNLGDEKPYRSSAVYAAALHSSTIPFRMQPTSSDSSEVSNSMDVNTLVQLLTGRGRQNIVAILDSAMPAPTLAGKQLENTLLTSLQALTPEVTEDVEDNQAVESMCILGALRSEDKEALVSEVKNAVDASYEQATTKGKPLFCNLSVSRCPLPVPLPFPSIFGNLVGRKGEILSSPVSDSLYRGSLDVHSIPVATRWRSSSAILPFLETRMGNLEKLGIQWGAMGSDVVRAWGFGREELQEMRENLSKMVSELNPQFFESSDSD,soluble
20,MGSSHHHHHHSSGLVPRGSHMEEDGGIIRRIQTRGEGYAKPNEGAIVEVALEGYYKDKLFDQRELRFEIGEGENLDLPYGLERAIQRMEKGEHSIVYLKPSYAFGSVGKEKFQIPPNAELKYELHLKSFEKAKESWEMNSEEKLEQSTIVKERGTVYFKEGKYKQALLQYKKIVSWLEYESSFSNEEAQKAQALRLASHLNLAMCHLKLQAFSAAIESCNKALELDSNNEKGLSRRGEAHLAVNDFELARADFQKVLQLYPNNKAAKTQLAVCQQRIRRQLAREKKLYANMFERLAEEENKAKAEASSGDHPTDTEMKEEQKSNTAGSQSQVETEA,soluble
